Results as given in patent publication US20180185504A1 (Regeneron, published 2018).

What was measured:
[1] = target: T1, human PRLR on cells (endogenous on T47D, T47D#11, MCF7); introduced in HEK293/hPRLR/STAT5-Luc, 293/hPRLR, … (human, UniProt P16471 25-622); experiment: FACS on T47D cells
T1 construct: no tag is stated for these lines; also called prolactin receptor
T1 sequence: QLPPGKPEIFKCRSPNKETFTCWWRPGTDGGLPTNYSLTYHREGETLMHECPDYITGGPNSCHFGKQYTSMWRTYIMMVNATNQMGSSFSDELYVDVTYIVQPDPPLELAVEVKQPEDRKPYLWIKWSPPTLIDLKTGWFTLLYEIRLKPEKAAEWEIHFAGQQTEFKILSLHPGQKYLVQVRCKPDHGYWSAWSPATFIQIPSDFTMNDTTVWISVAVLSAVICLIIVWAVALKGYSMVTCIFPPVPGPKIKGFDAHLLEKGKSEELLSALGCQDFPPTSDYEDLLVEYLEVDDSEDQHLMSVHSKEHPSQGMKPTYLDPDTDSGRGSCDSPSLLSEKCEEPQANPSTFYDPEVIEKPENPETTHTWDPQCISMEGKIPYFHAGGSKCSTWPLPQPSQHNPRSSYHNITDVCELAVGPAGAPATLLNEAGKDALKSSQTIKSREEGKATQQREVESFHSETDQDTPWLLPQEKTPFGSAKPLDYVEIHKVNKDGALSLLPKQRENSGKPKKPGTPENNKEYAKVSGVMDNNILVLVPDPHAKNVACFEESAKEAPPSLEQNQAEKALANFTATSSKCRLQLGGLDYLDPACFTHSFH

[2] = target: T1, human PRLR on cells (endogenous on …); experiment: cell-based or functional assay
[3] = target: T2, human PRLR construct with an HA tag on HEK293/hPRLR cells (human, UniProt P16471 25-622); experiment: FACS on HEK293/hPRLR cells
T2 sequence: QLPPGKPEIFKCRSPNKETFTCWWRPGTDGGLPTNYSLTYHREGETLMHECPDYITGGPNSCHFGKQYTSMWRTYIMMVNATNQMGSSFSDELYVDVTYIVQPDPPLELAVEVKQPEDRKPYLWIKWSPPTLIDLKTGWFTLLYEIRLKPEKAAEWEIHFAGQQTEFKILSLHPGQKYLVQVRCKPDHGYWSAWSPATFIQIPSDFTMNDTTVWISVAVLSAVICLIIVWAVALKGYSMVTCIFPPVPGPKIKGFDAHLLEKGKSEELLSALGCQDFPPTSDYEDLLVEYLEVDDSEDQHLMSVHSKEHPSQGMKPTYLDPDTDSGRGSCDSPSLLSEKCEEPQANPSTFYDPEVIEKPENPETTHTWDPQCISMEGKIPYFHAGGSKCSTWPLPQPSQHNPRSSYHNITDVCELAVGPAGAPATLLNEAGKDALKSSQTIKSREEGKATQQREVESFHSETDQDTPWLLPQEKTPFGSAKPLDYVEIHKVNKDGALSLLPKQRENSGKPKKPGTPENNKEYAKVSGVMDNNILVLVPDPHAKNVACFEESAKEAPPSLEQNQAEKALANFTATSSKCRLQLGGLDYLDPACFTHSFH

[4] = target: T3, mouse PRLR construct with an HA tag on HEK293/mPRLR cells (mouse, UniProt Q08501 20-608); experiment: FACS on HEK293/mPRLR cells
T3 construct: whole, on cells; stably transfected into HEK293
T3 sequence (looked up): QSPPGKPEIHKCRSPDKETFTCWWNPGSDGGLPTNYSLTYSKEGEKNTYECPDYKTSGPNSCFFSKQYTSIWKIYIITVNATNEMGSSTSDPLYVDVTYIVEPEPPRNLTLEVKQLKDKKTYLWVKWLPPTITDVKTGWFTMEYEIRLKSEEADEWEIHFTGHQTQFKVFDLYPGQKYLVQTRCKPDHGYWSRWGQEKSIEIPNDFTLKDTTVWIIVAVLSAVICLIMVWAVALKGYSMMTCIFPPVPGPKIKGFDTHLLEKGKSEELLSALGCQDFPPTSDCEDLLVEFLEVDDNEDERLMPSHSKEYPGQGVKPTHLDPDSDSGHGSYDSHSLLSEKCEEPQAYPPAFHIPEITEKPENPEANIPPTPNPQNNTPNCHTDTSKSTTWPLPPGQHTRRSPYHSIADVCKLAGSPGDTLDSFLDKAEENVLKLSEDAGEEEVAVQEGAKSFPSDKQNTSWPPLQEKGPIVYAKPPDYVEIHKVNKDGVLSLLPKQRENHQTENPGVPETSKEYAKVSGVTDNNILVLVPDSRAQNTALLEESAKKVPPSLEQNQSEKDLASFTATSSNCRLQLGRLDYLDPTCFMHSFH

[5] = target: T1, human PRLR on cells (endogenous on …); experiment: imaging of alexa488 intensity on T47D cells
Description: Briefly, 20,000 T47D cells were seeded in collagen coated 96 well plates. […] Cells were then incubated with alexa488 conjugated anti-hFc Fab secondary antibodies for 30 minutes on ice followed by two additional PBS washes. Antibodies were allowed to internalize for 1 h at 37° C. in internalization buffer (PBS+2% FBS) or remained at 4° C. Cells were fixed in 4% formaldehyde, nuclei were stained with DRAQ5 (Cell signaling), and images were acquired on the ImageXpress micro XL (Molecular Devices). Whole cell alexa488 intensity at 37° C. (Binding) and the alexa488 intensity in the intracellular vesicles at 37° C. (Internalization) were determined via Columbus image analysis software (PerkinElmer).

B1: H1H6975N (antibody, human IgG1, V domains shown)
VH: EVHLVESGGGLVQPGGSLRLSCAASGFTFSSYEMNWVRQTPGKGLEWISHISSRSVIIYYADSVKGRFTISRDNAKNSLFLQMNSLRAEDTAVYFCAGITIFGIPEYWGQGTLVTVSS
VL: EIVLTQSPATLSLSPGERATLSCRASQSVSSYFAWYQQKPGQAPRLLIYDASSRATGIPTRFSGSGSGTDFTLTISSLEPEDFAVYYCQQRSSWPITFGQGTRLEIK
notes: also called H2M6975N
FACS Cell Binding (Fold Above Background) [1]: 46 fold | % Internalization relative to Control I (T47D cells, imaging) [2]: 214% | FACS Cell Binding (Fold Above Background) [3]: 38 fold | FACS Cell Binding (Fold Above Background) [4]: 1 fold | % Total Binding relative to Control I [5]: 226%

B2: H1H6958N2 (antibody, human IgG1, V domains shown)
VH: QVQLVESGGGVVQPGRSLRLSCGASGFTFRNYGMQWVRQGPGKGLEWVTLISFDGNDKYYADSVKGRFTISRDNSKNTLFLQMNSLRTEDTAVYYCARGGDFDYWGQGTLVTVSS
VL: DIQMTQSPSSLSASVGDRVTITCRASQDIRKDLGWYQQKPGKAPKRLIYAASSLHSGVPSRFSGSGSGTEFTLTISSLQPEDFATYYCLQHNSYPMYTFGQGTKLEIK
notes: also called H2M6958N2
FACS Cell Binding (Fold Above Background) [1]: 37 fold | % Internalization relative to Control I (T47D cells, imaging) [2]: 169% | FACS Cell Binding (Fold Above Background) [3]: 35 fold | FACS Cell Binding (Fold Above Background) [4]: 1 fold | % Total Binding relative to Control I [5]: 162%

B3: H1H6762P (antibody, human IgG1, V domains shown)
VH: QVQLVESGGGVVQPGRSLRLSCAASGFTFSHYGMVWVRQPPGKGLEWVALISFDGTTKYYADSVKGRFTISRDNSKNTLYLQMNSLRAEDTAVYFCVGAIAAAAFDLWGRGTLVTVSS
VL: EIVMTQSPATLSVSPGERATLSCRASQSVSSDLAWYQQKPGQAPRLLIYSASARATGIPARFTGSGSGTDFTLTISSLQSEDFAVYYCQQYNNWPMYTFGQGTKLEIK
notes: human IgG1 Fc (H1H)
FACS Cell Binding (Fold Above Background) [1]: 38 fold | % Internalization relative to Control I (T47D cells, imaging) [2]: 186% | FACS Cell Binding (Fold Above Background) [3]: 36 fold | FACS Cell Binding (Fold Above Background) [4]: 2 fold | % Total Binding relative to Control I [5]: 177%

B4: H1H6803P (antibody, human IgG1, V domains shown)
VH: EVQLVESGGGVVRPGGSLRLSCAASGFKFDDYGMTWVRHVPGKGLEWVSGINWNGGRTGYTDSVKGRFTISRDNAKNSLYLQMNSLRAEDTALYHCAGARRDAFDIWGQGTMVTVSS
VL: DIQMTQSPSSLSASIGDRVTITCRASQNIIKYLNWYQQNAGKAPKLLIYTASSLQSGVPSRFSGSGSGTDFTLTISSLQPEDFATYYCQQSSSSPYTFGQGTKLEIK
notes: human IgG1 Fc (H1H)
FACS Cell Binding (Fold Above Background) [1]: 39 fold | % Internalization relative to Control I (T47D cells, imaging) [2]: 190% | FACS Cell Binding (Fold Above Background) [3]: 39 fold | FACS Cell Binding (Fold Above Background) [4]: 1 fold | % Total Binding relative to Control I [5]: 206%

B5: H1H6793P (antibody, human IgG1, V domains shown)
VH: EVQLVESGGGLVQPGGSLRLSCAASGFSFSIYAMSWFRQAPGKGLEWVSAINGRGDGTHYADSVKGRFTISRDNSKTTLYLQMSSLRAEDTAVYYCAKPVMSTNGFDIWGQGTMVTVSS
VL: DIQMTQSPSTLSASVGDRVTITCRASQSISSWLAWYQLKPGKAPKLLIYKASNLESGVPSRFSGSGSGTEFTLTISSLQPDDFATYYCQQYNIYWTFGQGTKVEIK
notes: human IgG1 Fc (H1H)
FACS Cell Binding (Fold Above Background) [1]: 43 fold | % Internalization relative to Control I (T47D cells, imaging) [2]: 180% | FACS Cell Binding (Fold Above Background) [3]: 2 fold | FACS Cell Binding (Fold Above Background) [4]: 2 fold | % Total Binding relative to Control I [5]: 178%

B6: H1H6782P (antibody, human IgG1, V domains shown)
VH: EVQLVESGGGLVQPGRSLRLSCAASGFTFDDYAMHWVRQAPGKGLEWVSGIIWNSGHIGYGDSVKGRFTISRDNAKKSLYLQMNSLRAEDTALYYCARDSGRYQSYFDYWGQGTLVTVSS
VL: DIQMTQSPSTLSASVGDRVTITCRASHIISSWLAWYQQKPGKAPKVLIFKASSLESGVPSRFSGSGSGTEFTLTISSLQPDDFATYYCQQYNTYSRTFGQGTKVEIK
notes: human IgG1 Fc (H1H)
FACS Cell Binding (Fold Above Background) [1]: 43 fold | % Internalization relative to Control I (T47D cells, imaging) [2]: 179% | FACS Cell Binding (Fold Above Background) [3]: 41 fold | FACS Cell Binding (Fold Above Background) [4]: 4 fold | % Total Binding relative to Control I [5]: 210%

B7: H1H6765P (antibody, human IgG1, V domains shown)
VH: EVQLVESGGGVVRPGGSLRLSCVGSGFSFDDHGMNWVRQGPGKGLEWVSGFNWNGGSTNYAESVKGRFTISRDNARNSLFLQMNSLRAEDTALYYCVRGRSGWFNDAFDVWGPGTMVTVSS
VL: EIVLTQSPGTLSLSPGERATLSCRASQTINSNYLAWYRQKPGQTPRLLIYGTSSRATGIPDRFSGSGSGTDFSLTISRLEPEDFAVFYCQQYAGLPTFGPGTKVDIK
notes: human IgG1 Fc (H1H)
FACS Cell Binding (Fold Above Background) [1]: 40 fold | % Internalization relative to Control I (T47D cells, imaging) [2]: 186% | FACS Cell Binding (Fold Above Background) [3]: 38 fold | FACS Cell Binding (Fold Above Background) [4]: 1 fold | % Total Binding relative to Control I [5]: 191%

B8: H1H6976N (antibody, human IgG1, V domains shown)
VH: EVQLLESGGGFVQPGGSLRLSCAASGFTFSSYAMSWVRQAPGKGLEWVSIISSNGRYTYYADSVKGRFTISRDNSKNTLYLQMNSLRAEDTAVYYCATVTGDWFDPWGQGTLVTVSS
VL: DIQLTQSPSFLSASVGDRVTITCWASQDIDISLAWYQQKPGKAPKLLIYAASTLQSGVPSKFSGSGSGTDFTLTISSLQPEDFSTYYCQQLNSYPITFGQGTRLDIK
notes: also called H2M6976N
FACS Cell Binding (Fold Above Background) [1]: 37 fold | % Internalization relative to Control I (T47D cells, imaging) [2]: 170% | FACS Cell Binding (Fold Above Background) [3]: 8 fold | FACS Cell Binding (Fold Above Background) [4]: 1 fold | % Total Binding relative to Control I [5]: 180%

B9: H1H6800P (antibody, human IgG1, V domains shown)
VH: EVQLVESGGGLVQPGRSLRLSCAASGFTFDGYAMHWVRQGPGKGLEWVSGISWYSDTLGYADSVKGRFTISRDNAKNSLYLQMNSLRTEDTAFYYCAKISSSGWAFDYWGQGTLVTVSS
VL: EIVLTQSPGTLSLSPGERATLSCRASHSVSSAYLAWYQQKPGQTPRLLIYGTSSRATGIPDRFSGSGSGTDFTLTISRLEPEDFAVYYCQQYGSSPLFTFGPGTKVDIK
notes: human IgG1 Fc (H1H)
FACS Cell Binding (Fold Above Background) [1]: 41 fold | % Internalization relative to Control I (T47D cells, imaging) [2]: 198% | FACS Cell Binding (Fold Above Background) [3]: 35 fold | FACS Cell Binding (Fold Above Background) [4]: 1 fold | % Total Binding relative to Control I [5]: 187%

B10: H1H6785P (antibody, human IgG1, V domains shown)
VH: EVQLVESGGGLVQPGGSLRLSCAASGFTFSSYEMNWVRQAPGKGLEWISYISSRGGTIYYADSIKGRFTIYRDNARNSLYLQMNSLRAEDTAIYYCARLSGVDIFDIWGQGTMVTVSS
VL: DIQMTQSPSSLSASVGDRVTITCRASQGISNYLAWYQQKPGKVPKLLIYFASTLQSGVPSRFSGGGSGTDFTLTISSLQPEDVATYYCQRYNSAPLTFGGGTKVEIK
notes: human IgG1 Fc (H1H)
FACS Cell Binding (Fold Above Background) [1]: 40 fold | % Internalization relative to Control I (T47D cells, imaging) [2]: 169% | FACS Cell Binding (Fold Above Background) [3]: 37 fold | FACS Cell Binding (Fold Above Background) [4]: 2 fold | % Total Binding relative to Control I [5]: 168%
